Measurements taken from patent US20110091994A1, “Methods for Screening Compounds for Treating and/or Preventing an Hepatitis C Virus Infection” (priority 2008, published 2011).
Like-named read-outs stand apart in the source and are kept apart here.

Assays:
[1] = tested on: HCV ORFs (Gal4-DB fusions); type: binding, HCV genotype 1b, isolate con1; conditions: human protein listed by gene symbol; the value names the HCV protein it interacts with
[2] = molecular target: T1, HCV ORFs (Gal4-DB fusions) (Hepatitis C virus genotype 1b, UniProt Q9WMX2); type: binding, HCV genotype 1b, isolate con1; conditions: human protein as prey
T1 construct: expressed in transfected cells; host or cells: Saccharomyces cerevisiae MAV203 (IMAP1) / AH109 (IMAP2)

HCV proteins = molecular target: T2, HCV proteins (Hepatitis C virus genotype 1b, UniProt Q9WMX2); assay: Validation by Y2H pairwise matrices; type: binding;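 further: yeast two-hybrid pairwise tests of interactions first found in Y2H screens of HCV bait proteins against human cDNA libraries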
T2 construct: expressed in transfected cells

[3] = interaction with HCV protein NS5B
[4] = validation of interaction with HCV protein CORE
[5] = validation of interaction with HCV protein E2
[6] = validation of interaction with HCV protein NS2
[7] = validation of interaction with HCV protein NS4A
[8] = validation of interaction with HCV protein NS3
[9] = validation of interaction with HCV protein E1
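Wherever IMAP Y2H IMAP1 (number of IST) is given: yeast two-hybrid screens using HCV genotype 1b proteins fused to Gal4-DB as baits against prey cDNA libraries from human spleen and foetal brain, IMAP1 via transformation and IMAP2 via mating.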
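Wherever IMAP Y2H IMAP2 (number of IST) is given: yeast two-hybrid screens using HCV genotype 1b proteins fused to Gal4-DB as baits against prey cDNA libraries from human spleen and foetal brain, IMAP1 via transformation and IMAP2 via mating.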
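Wherever Interaction with viral protein is given: yeast two-hybrid screens using HCV genotype 1b proteins fused to Gal4-DB as baits against prey cDNA libraries from human spleen and foetal brain, IMAP1 via transformation and IMAP2 via mating.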

| Substance | Interaction with viral protein [1] | IMAP Y2H IMAP1 (number of IST) ([2]; HCV protein NS3 as bait) | Y2H matrices (HCV proteins; [8]) | further results |
| --- | --- | --- | --- | --- |
| SMYD3 | NS5A | – | – | IMAP Y2H IMAP1 (number of IST) ([2]; HCV protein NS5A as bait): 1; Y2H matrices (HCV proteins; interaction with HCV protein NS5A): + |
| HOXD8 | – | – | – | IMAP Y2H IMAP1 (number of IST) ([2]; HCV protein CORE as bait): 1; IMAP Y2H IMAP1 (number of IST) ([2]; HCV protein E2 as bait): 1; IMAP Y2H IMAP1 (number of IST) ([2]; HCV protein NS2 as bait): 1; IMAP Y2H IMAP1 (number of IST) ([2]; HCV protein NS4A as bait): 1; IMAP Y2H IMAP1 (number of IST) ([2]; HCV protein NS5B as bait): 1; Y2H matrices (HCV proteins; [3]): +; Y2H matrices (HCV proteins; [4]): +; Y2H matrices (HCV proteins; [5]): +; Y2H matrices (HCV proteins; [6]): +; Y2H matrices (HCV proteins; [7]): + |
| SVEP1 | NS3 | 3 | + | – |
| FBN3 | NS3 | 2 | + | – |
| SBF1 | NS3 | 1 | + | – |
| KIAA1549 | NS3 | 1 | + | – |
| ITGB1 | – | – | – | IMAP Y2H IMAP1 (number of IST) ([2]; HCV protein E2 as bait): 1; Y2H matrices (HCV proteins; [5]): + |
| LAMB2 | NS3 | 1 | + | – |
| AGRN | CORE | – | – | IMAP Y2H IMAP1 (number of IST) ([2]; HCV protein CORE as bait): 1; Y2H matrices (HCV proteins; [4]): + |
| AXIN1 | NS5A | – | – | IMAP Y2H IMAP2 (number of IST) ([2]; HCV protein NS5A as bait): 1 |
| RUSC2 | NS3 | 21 | + | IMAP Y2H IMAP2 (number of IST) ([2]; HCV protein NS3 as bait): 1 |
| MEGF8 | NS3 | 2 | + | – |
| GAA | NS3 | 2 | + | – |
| PDE4DIP | NS3 | 3 | + | – |
| TRIP11 | NS3 | 1 | + | – |
| HIVEP2 | NS3 and CORE | 3 | + | IMAP Y2H IMAP2 (number of IST) ([2]; HCV protein CORE as bait): 2; IMAP Y2H IMAP2 (number of IST) ([2]; HCV protein NS3 as bait): 5 |
| TRIOBP | – | – | – | IMAP Y2H IMAP2 (number of IST) ([2]; HCV protein NS5A as bait): 2 |
| MVP | NS3 | 1 | + | – |
| NDC80 | NS3 | – | – | IMAP Y2H IMAP2 (number of IST) ([2]; HCV protein NS3 as bait): 1 |

| Substance | Interaction with viral protein [1] | IMAP Y2H IMAP1 (number of IST) ([2]; HCV protein NS3 as bait) | Y2H matrices (HCV proteins; [8]) | further results |
| --- | --- | --- | --- | --- |
| RNF31 | NS3 and CORE | 1 | + | IMAP Y2H IMAP1 (number of IST) ([2]; HCV protein CORE as bait): 1; Y2H matrices (HCV proteins; [4]): + |
| VWF | NS3 and CORE | 26 | + | IMAP Y2H IMAP1 (number of IST) ([2]; HCV protein CORE as bait): 2; Y2H matrices (HCV proteins; [4]): + |
| TUBB2C | – | – | – | IMAP Y2H IMAP1 (number of IST) ([2]; HCV protein NS5B as bait): 1; Y2H matrices (HCV proteins; [3]): + |
| CEP63 | NS5A | – | – | IMAP Y2H IMAP2 (number of IST) ([2]; HCV protein NS5A as bait): 1 |
| GAPDH | CORE | – | – | IMAP Y2H IMAP1 (number of IST) ([2]; HCV protein CORE as bait): 1; Y2H matrices (HCV proteins; [4]): + |
| RICS | NS3 | 3 | + | IMAP Y2H IMAP2 (number of IST) ([2]; HCV protein NS3 as bait): 1 |
| NCAN | NS3 | 1 | + | – |
| RINT1 | NS3 | 1 | + | – |
| STAB1 | NS3 | 4 | + | – |
| VIM | NS3 | 32 | + | – |
| PSMA6 | – | – | – | IMAP Y2H IMAP1 (number of IST) ([2]; HCV protein E2 as bait): 1; Y2H matrices (HCV proteins; [5]): + |
| APOA1 | NS3/4A and NS4B and NS2 and NS3 | – | – | – |
| ARNT | NS3 | 1 | + | – |
| CELSR2 | NS3 | 1 | + | – |
| SHARPIN | NS5A | – | – | IMAP Y2H IMAP2 (number of IST) ([2]; HCV protein NS5A as bait): 2; IMAP Y2H IMAP2 (number of IST) ([2]; HCV protein NS5B as bait): 1 |
| LAMC3 | NS3 | 1 | + | – |
| LTBP4 | NS3 and CORE | 2 | + | IMAP Y2H IMAP1 (number of IST) ([2]; HCV protein CORE as bait): 4; Y2H matrices (HCV proteins; [4]): + |
| RGNEF | NS3 | 1 | + | – |
| MEGF6 | CORE | – | – | IMAP Y2H IMAP1 (number of IST) ([2]; HCV protein CORE as bait): 1; Y2H matrices (HCV proteins; [4]): + |

| Substance | Interaction with viral protein [1] | IMAP Y2H IMAP1 (number of IST) ([2]; HCV protein NS3 as bait) | Y2H matrices (HCV proteins; [8]) | further results |
| --- | --- | --- | --- | --- |
| LAMA5 | NS3 | 1 | + | – |
| MAPK7 | NS3 | 4 | + | – |
| NELL2 | NS3 | 11 | + | – |
| HNRPK | – | – | – | IMAP Y2H IMAP2 (number of IST) ([2]; HCV protein CORE as bait): 14; IMAP Y2H IMAP2 (number of IST) ([2]; HCV protein NS3 as bait): 1 |
| SETD2 | – | – | – | IMAP Y2H IMAP1 (number of IST) ([2]; HCV protein CORE as bait): 5; IMAP Y2H IMAP1 (number of IST) ([2]; HCV protein E1 as bait): 2; IMAP Y2H IMAP1 (number of IST) ([2]; HCV protein E2 as bait): 1; IMAP Y2H IMAP1 (number of IST) ([2]; HCV protein NS2 as bait): 1; IMAP Y2H IMAP1 (number of IST) ([2]; HCV protein NS5B as bait): 3; Y2H matrices (HCV proteins; [3]): +; Y2H matrices (HCV proteins; [4]): +; Y2H matrices (HCV proteins; [9]): +; Y2H matrices (HCV proteins; [5]): +; Y2H matrices (HCV proteins; [6]): + |
| ROGDI | NS3 | – | – | IMAP Y2H IMAP2 (number of IST) ([2]; HCV protein NS3 as bait): 1 |
| TMSB4X | – | – | – | IMAP Y2H IMAP1 (number of IST) ([2]; HCV protein E1 as bait): 1; Y2H matrices (HCV proteins; [9]): + |
| LRRC7 | NS3 | – | – | IMAP Y2H IMAP2 (number of IST) ([2]; HCV protein NS3 as bait): 6 |
| OBSCN | NS3 | 1 | – | – |
| NR4A1 | – | – | – | IMAP Y2H IMAP1 (number of IST) ([2]; HCV protein CORE as bait): 31; IMAP Y2H IMAP1 (number of IST) ([2]; HCV protein E1 as bait): 14; IMAP Y2H IMAP1 (number of IST) ([2]; HCV protein E2 as bait): 6; IMAP Y2H IMAP1 (number of IST) ([2]; HCV protein NS2 as bait): 5; IMAP Y2H IMAP1 (number of IST) ([2]; HCV protein NS4A as bait): 3; IMAP Y2H IMAP1 (number of IST) ([2]; HCV protein NS5B as bait): 8; Y2H matrices (HCV proteins; [3]): +; Y2H matrices (HCV proteins; [4]): +; Y2H matrices (HCV proteins; [9]): +; Y2H matrices (HCV proteins; [5]): +; Y2H matrices (HCV proteins; [6]): +; Y2H matrices (HCV proteins; [7]): + |
| CADPS2 | NS5A | – | – | IMAP Y2H IMAP2 (number of IST) ([2]; HCV protein NS5A as bait): 1 |
| DOCK7 | NS3 | – | – | IMAP Y2H IMAP2 (number of IST) ([2]; HCV protein NS3 as bait): 2 |
| FHL2 | NS5A | – | – | IMAP Y2H IMAP2 (number of IST) ([2]; HCV protein NS5A as bait): 1 |
| THBS1 | NS5A | – | – | IMAP Y2H IMAP2 (number of IST) ([2]; HCV protein NS5A as bait): 7 |
| JUN | – | 8 | + | IMAP Y2H IMAP1 (number of IST) ([2]; HCV protein E1 as bait): 1; Y2H matrices (HCV proteins; [9]): + |
| UBQLN4 | – | – | – | IMAP Y2H IMAP1 (number of IST) ([2]; HCV protein p7 as bait): 3; Y2H matrices (HCV proteins; interaction with HCV protein p7): + |
| CADPS | NS5A | – | – | IMAP Y2H IMAP2 (number of IST) ([2]; HCV protein NS5A as bait): 1 |
| CEP250 | NS5A | – | – | IMAP Y2H IMAP2 (number of IST) ([2]; HCV protein NS5A as bait): 15; IMAP Y2H IMAP2 (number of IST) ([2]; HCV protein NS5B as bait): 1 |
| SYNE1 | NS3 | – | – | IMAP Y2H IMAP2 (number of IST) ([2]; HCV protein NS3 as bait): 4 |
